B1: N Aptamer 1 (88 nt) (ssDNA)
DNA: GCAATGGTACGGTACTTCCGGATGCGGAAACTGGCTAATTGGTGAGGCTGGGGCGGTCGTGCAGCAAAAGTGCACGCTACTTTGCTAA
B2: N Aptamer 2 (78 nt) (ssDNA)
DNA: GCAATGGTACGGTACTTCCGGATGCGGAAACTGGCTAATTGGTGAGGCTGGGGCGGTCGTGCAGCAAAAGTGCACGCT
B3: N Aptamer 3 (57 nt) (ssDNA)
DNA: GCAATGGTACGGTACTTCCGGATGCGGAAACTGGCTAATTGGTGAGGCTGGGGCGGT

Tests used:
Experiment in all cases: ELAA
Nucleocapsid (N) protein = Nucleocapsid (N) protein (SARS-CoV-2, UniProt P0DTC9 1-419)
[1] = molecular target: Spike receptor-binding domain (S-RBD-Fc) (SARS-CoV-2, UniProt P0DTC2 319-541)
[2] = molecular target: 3C-like protease (3CLpro) (SARS-CoV-2, UniProt P0DTD1 3264-3569)

Row | Binder | binding result (Nucleocapsid (N) protein) | binding result [1] | binding result [2]
1 | B1 | binds | – | –
2 | B2 | binds | – | –
3 | GCAATGGTACGGTACTTCCGGATGCGGAAACTG (ssDNA) [Aptamer n.c. (33 nt)] | no binding | no binding | no binding
4 | B3 | binds | – | –
